Reference: US20210214454A1

Experiments:
[1] = biological target: human CD40 protein expressed on cells (human) (UniProt P25942); experiment: flow cytometry on CHO-S cells transiently expressing human CD40; AF647 anti-human IgG (H+L) secondary; GeoMean RL1-H
[2] = biological target: cynomolgus CD40 protein expressed on CHO-S cells (cynomolgus) (UniProt G7PG38); experiment: flow cytometry on CHO-S cells transiently expressing cynomolgus CD40; AF647 anti-human IgG (H+L) secondary; GeoMean RL1-H

Sequence of human CD40 protein expressed on cells (human) (P25942 21-277 limits assumed): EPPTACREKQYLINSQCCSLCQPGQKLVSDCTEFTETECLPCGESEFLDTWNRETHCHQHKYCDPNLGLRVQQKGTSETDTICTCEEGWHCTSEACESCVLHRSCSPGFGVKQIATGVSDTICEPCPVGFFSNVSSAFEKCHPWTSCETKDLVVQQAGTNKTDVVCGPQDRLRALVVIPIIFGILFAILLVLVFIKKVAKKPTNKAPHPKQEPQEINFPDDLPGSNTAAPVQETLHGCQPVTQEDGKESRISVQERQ

Substance: selicrelumab analogue (antibody)
- EC50 (read off the curve) [1]: 0.07 µg/mL
- EC50 (read off the curve) [2]: 0.08 µg/mL
